# Assay results published in patent US12275759B2, “Hepatitis B virus replication inhibitor and pharmaceutical composition for treating hepatitis B comprising the same” (RIKEN, priority 2018, dated 2025).
# Where a chain is given by its changes, count along the chain named. In names and notes the source's numbering stands.
# B1: α1-4a (protein)
# chain: MDIDPYKEFGASVELLSFLPSDFFPSIRDLLDTASALYREALESPEHCSPHHTALRQAILCWGELMNLATWVGSNLEDPASRELVVSYVNV
# B2: α2-4b (protein)
# chain: MFLPSDFFPSIRDLLDTASALYREALESPEHCSPHHTALRQAILCWGELMNLATWVGSNLEDPASRELVVSYVNVNMGLKIRQLLWFHISCLTFG
# B3: ΔHBc(α1-4b)-F23A (protein)
# chain: MDIDPYKEFGASVELLSFLPSDAFPSIRDLLDTASALYREALESPEHCSPHHTALRQAILCWGELMNLATWVGSNLEDPASRELVVSYVNVNMGLKIRQLLWFHISCLTFG
# B4: ΔHBc(α1-4b)-L42A (protein)
# chain: B3 chain with A23F, L42A
# B5: HR-RDBD (protein)
# chain: MGRETVLEYLVSFGVWIRTPPAYRPPNAPILSTLPETTVVRRRGRSPRRRTPSPRRRRSQSPRRRRSQSRESQC
# B6: α3-4b (protein)
# chain: MSPEHCSPHHTALRQAILCWGELMNLATWVGSNLEDPASRELVVSYVNVNMGLKIRQLLWFHISCLTFG
# Legend:
# Assay type in all cases: cell-based, hepatitis B virus
# [1] = system: HBV replication by HBc-T33N; assay: system for evaluating HBV replication activity in HeLa cells with HBc-T33N in place of HBc-WT; settings: GLS4 0.08 to 5 μM, FIG. 13
# Method: The T residue at position 33 was substituted with an N residue (denoted as T33N) by a site-directed mutagenesis method using PrimeSTAR Mutagenesis Basal Kit (Takara Bio Inc.) using the full length HBc expression vector (pCI-HBc) of genotype C used in Example 1 as the template. The T33N mutant of the full length HBc having introduced the point mutation is denoted as HBc-T33N.
# The measurement of the HBV replication activity by HBc-WT or HBc-T33N was performed in accordance with the method described in Example 1 using HBc-WT or HBc-T33N as HBc comprised in the system for evaluating HBV replication described in Example 1 in the presence of GLS4 at a concentration of 0 μM, 0.08 μM, 0.16 μM, 0.31 μM, 0.63 μM, 1.25 μM, 2.5 μM, or 5 μM. Based on the obtained measurement value of HBV replication activity (amount of reverse transcribed HBV DNA), the efficiency for inhibition of HBV replication (%) was calculated.
# The evaluation of the inhibitory effect on HBV replication of the spike region ΔHBc(α1-4b) was in accordance with the method described in Example 2. However, in this Example, HBc-WT or HBc-T33N was used as the HBc comprised in the system for evaluating HBV replication described in Example 2.
# [2] = system: HBV replication; assay: system for evaluating HBV replication activity (reporter (−) DNA quantitative PCR) in HeLa cells, with wild type HBc; settings: GLS4 0.08 to 5 μM, HBc-WT in the system; FIG. 13
# [3] = system: HBV replication; assay: as above; settings: for inhibitory effect on HBV replication: pCI-HBc:pCI-ΔHBc = 9:26, 24 hours culture, amount of reporter (−) DNA vs positive control (empty vector), FIG. 7, 9, 11A; for inhibitory activity on HBV replication compared to wild type pCI-ΔHBc(α1-4b): single ratio as in Example 1, FIG. 11A
# Description: The effect of each of the aforementioned ΔHBc expression vector (pCI-ΔHBc) on HBV replication was examined using the system for evaluating HBV replication activity described in WO2018/030534 developed by the present inventors.
# Specifically, the system for evaluating HBV replication activity consisting of the vector for evaluating HBV replication activity (pBB-intron) encoding the reporter pgRNA shown in FIG. 5A, the HBV-P expression vector (pCI—HBV-Pol) shown in FIG. 5B, the HBc expression vector (pCI-HBc) shown in FIG. 5C, and the HBx expression vector (pCI-HBx) shown in FIG. 5D was introduced into HeLa cells together with each pCI-ΔHBc. The introduction ratio of the respective expression vectors was pBB-intron: pCI-HBc: pCI—HBV-Pol: pCI-HBx: pCI-ΔHBc=13:9:3:1:26. According to this ratio, the amount of ΔHBc is about three times (2.89 times) as much as that of the wild type HBc functioning in HBV replication. As a positive control, an empty vector (pCI) was introduced at the same ratio as pCI-ΔHBc. For gene introduction into HeLa cells, the electroporation method was used. Using an Electroporator Nepa21 (Nepa Gene Co., Ltd.) 10 μg of DNA was introduced into approximately 1×10^6 cells under the condition of 125 V/2.5 ms pulse length. The HeLa cells after gene introduction were cultured in DMEM to which 2 mL of 10% FBS was added in the presence of 5% CO2 at 37° C. for 24 hours.
# When the vector for evaluating HBV replication activity (pBB-intron) described above is introduced into HeLa cells, pre-mRNA shown in FIG. 6A is synthesized by RNA-pol II in HeLa cells, then an intron comprised in the reporter sequence of pBB-intron is immediately removed by pre-mRNA splicing in HeLa cells. […] The amount of this reporter (−) DNA reflects the replication activity and replication amount of HBV. Therefore, when DNA is extracted from the cells in which the system for evaluating HBV replication activity and pCI-ΔHBc are introduced, the amount thereof is quantified with a primer set specific to the reporter (−) DNA, and then compared with the amount of the positive control, the effect of pCI-ΔHBc on the HBV replication can be evaluated.
# DNA was extracted from HeLa cells after culture using DNeasy Mini (Qiagen N.V.). Then, quantitative PCR was performed using a primer set specific to the reporter (−) DNA after reverse transcription. For primers, a forward primer (Primer F) consisting of the base sequence shown in SEQ ID NO: 23, and a reverse primer (Primer R) consisting of the base sequence shown in SEQ ID NO: 24 were used. […] Therefore, it functions as a primer only when there is a reporter (−) DNA having the reporter sequence from which the intron has been removed, and the DNA fragment of 131 bases is amplified.
# The basic procedures were in accordance with Example 1. As pCI-ΔHBc to be introduced into HeLa cells together with the system for evaluating HBV replication activity, only pCI-ΔHBc(α1-4b) was used. The introduction ratio of the respective expression vectors was set such that the ratio of pCI-HBc: pCI—HBV-Pol: pCI-HBx was 9:3:1, and the ratio of pBB-intron: pCI-HBc/pCI—HBV-Pol/pCI-HBx was 1:1. Then, only the system for evaluating HBV replication activity in which the ratio of pCI-ΔHBc(α1-4b): pBB-intron/pCI-HBc/pCI—HBV-Pol/pCI-HBx was adjusted to 1:26, 3:26, 9:26, or 26:26, was introduced as a positive control. In each sample, an empty vector (pCI) was used for adjustment so that the amount of the vector to be introduced is the same.
# [4] = system: full length HBc; assay: Western blotting under non-reducing conditions of HBc dimer and multimer formation in HeLa cells; settings: PA-tagged ΔHBc coexpressed with full length HBc in HeLa cells, antibody #511; FIG. 12A
# Method: Each of the expression vectors of the wild type full length HBc (HBc-WT), and mutant full length HBc (HBc-F23A and HBc-L42A) was introduced into HeLa cells, which were cultured for 24 hours. Then proteins were extracted with a WB lysis buffer (1% Triton, 25 mM Tris pH 7.4, 150 mM NaCl). After addition of CuSO4 (100 μM), the protein extract was incubated at room temperature for 20 min, and neutralized with 1 mM EDTA, to which α13-ME-free SDS-PAGE sample buffer was added. Then SDS-PAGE was performed using a 10 to 20% polyacrylamide gel (SuperSep™ Ace, FUJIFILM Wako Pure Chemical Corporation). After the electrophoresis, the proteins were transferred to a PVDF membrane using a semi-dry blotter, and Western blotting was performed using a mouse anti-human HBc monoclonal antibody (#511).
# The basic procedures were in accordance with the method described in Example 4. pCI-ΔHBc(α1-4b)-PA alone, or pCI-ΔHBc(α1-4b)-PA and pCI-ΔHBc(α1-4b)-F23A-PA at a ratio of 1:1 were introduced into HeLa cells.
molecule,measurement,setting,value
CCOC(=O)C1=C(CN2CCOCC2)NC(c2nccs2)=NC1c1ccc(F)cc1Br (stereo not drawn) [GLS4],inhibitory effect on HBV replication by HBc-T33N (efficiency of inhibition),[1],did not exhibit inhibitory effect on HBV replication by HBc-T33N
same,inhibitory effect on HBV replication by HBc-WT (efficiency of inhibition),[2],inhibited HBV replication by HBc-WT in a concentration-dependent manner
α1-2b (MDIDPYKEFGASVELLSFLPSDFFPSIRDLLDTASALYREALESPEHCS),inhibitory effect on HBV replication,[3]; HeLa cells,inhibitory activity on HBV replication was lost
α4ab (MSNLEDPASRELVVSYVNVNMGLKIRQLLWFHISCLTFG),inhibitory effect on HBV replication,[3]; HeLa cells,inhibitory activity on HBV replication was lost
B1,inhibitory effect on HBV replication,[3]; HeLa cells,inhibitory activity on HBV replication was lost
B2,inhibitory effect on HBV replication,[3]; HeLa cells,inhibitory activity on HBV replication was lost
B3,dose-dependent inhibition of HBV replication,"[3]; HeLa cells, HBc-WT, ΔHBc/WT-HBc expression vector ratio 1/9, 3/9, 9/9, 26/9, FIG. 8, 11B, 14 left",inhibited HBV replication depending on its expression level
same,inhibitory effect on HBV replication,[3]; HeLa cells,inhibitory effect on HBV replication activity was maintained
same,inhibitory activity on HBV replication compared to wild type pCI-ΔHBc(α1-4b),[3]; HeLa cells,more strongly inhibited than in the cells having introduced the wild type pCI-ΔHBc(α1-4b)
same,"inhibitory activity on HBV replication compared to ΔHBc(α1-4b), dose series","[3]; plasmids serially diluted with empty vector as in Example 2, FIG. 11B",stronger inhibitory activity on HBV replication than ΔHBc(α1-4b)
same,effect on multimer formation of the full length HBc,[4],inhibited the normal multimer formation of the full length HBc
B4,inhibitory effect on HBV replication,[3]; HeLa cells,inhibitory effect on HBV replication activity was maintained
same,inhibitory activity on HBV replication compared to wild type pCI-ΔHBc(α1-4b),[3]; HeLa cells,reduced compared to the wild type pCI-ΔHBc(α1-4b)
B5,inhibitory effect on HBV replication,[3]; HeLa cells,did not show the inhibitory activity on HBV replication
B6,inhibitory effect on HBV replication,[3]; HeLa cells,inhibitory activity on HBV replication was lost
